Assay results: EP1233271A1 (Huber, Lukas, dated 2002)

Molecular target: T1, GST (UniProt P08515 1-218 = GST)
T1 construct: Negative control of the pull-down; also called GST alone
Test: GST pull-down on GSH-sepharose, immunoblot

T1 sequence (P08515 whole entry): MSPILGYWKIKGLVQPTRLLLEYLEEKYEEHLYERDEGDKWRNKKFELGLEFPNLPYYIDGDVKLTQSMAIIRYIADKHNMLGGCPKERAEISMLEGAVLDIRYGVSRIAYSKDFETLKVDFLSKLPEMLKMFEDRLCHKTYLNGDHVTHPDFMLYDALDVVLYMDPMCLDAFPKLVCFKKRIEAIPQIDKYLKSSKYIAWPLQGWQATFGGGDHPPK

binding result: no binding
B1: His6-T7-tagged MP1 (other, UniProt O88653 1-124, looked up)
chain: MADDLKRFLYKKLPSVEGLHAIVVSDRDGVPVIKVANDSAPEHALRPGFLSTFALATDQGSKLGLSKNKSIICYYNTYQVVQFNRLPLVVSFIASSSANTGLIVSLEKELAPLFEELIKVVEVS
notes: Recombinant, in bacterial lysate; also called His6-T7-MP1; not shown: N-terminal His6-T7 tag from vector pET28 (Novagen)
